experiment: soluble on expression in E. coli; label from the status in PepcDB or PDB records

Row | Sequence | soluble on expression in E. coli
1 | MTRVRDLMSTHIVHCTPLDNVYEAAVKMKEESIGLIPVVENEQVVGLVTDRDLVVRGIAEKHPGSNKITNVMTTNIISVSPNDSIEKATELMAQHQIRRLPVVDSGQLIGMLALGDLAIRESADDQAGFALSEISERTE | not soluble
2 | MTSGTTRWLDDCTPRALERFADELIAMAEQREDEARRRFYEGMAVAAKLIALRWEGKCAYIDDHLLDNVYEALAVFSLEKLEKTLAMEAEEAHGGGRCSFCLKEKPRLAKGPLAAICDDCLQFGLQVIAKQP | not soluble
3 | MTSLILPTDDGGTREYRLQAATSWVKPTAPLTARRAYAAAHVIPEVAADNTPGAPAQLDWDATLAYRHELWSYGLGVADAMDTAQRGMGLDWAATQQLIKRTGAEAASVVAAGNAAITGKSVRDLVSCGAGTDQLDITALPEGAAGIQAVIDAYREQIAVVSEAGPKVILMASRALAKVANGADDYLHVYSTLLQEVDQPVILHWLGTMFDPALAGYWGSDDVSVATDTFLSLIREHSDKVDGVKVSLLDASHEVALRAALPEGVRLYTGDDFNYPELIDGDQTHHSDALLGIFAAIYPAASVALQKYDAGQGTEGRAILDSTRELGKHIFSAPTFYYKTGIAFMSWLNGKQPGFQMVGGLHSGRSVLHLAKTFELADQAGLLKDPSLAAFRMSDFLRINGVG | not soluble
4 | MTSLLGGNFTEALHTVLSNQLNVMSQKTSDSEAPTTFSSSSSSDSPPYDPMSLVSAGISDQNGLMDMFKDGLFATLVPPTDVANSDTASSESPEPAAQSHEAAEETGGTEEQQAAALSLIQSFGTPIPSKFEDIESQFFSEATIRDLMPVLASVQGSPPHNQNQLSFGSTSSPSAWARNAGRKKSHPVWDFFKDMKDSTGAGGVICLHCSWSGDDRSPNNLRTHLKKFHSDDGIFNRFSEKLAKMARRKQQESTLVIDPSHSKDDSAFFEGSSGSDAPSTIDTTQLMALLEQSAAAAAAAAAASSSENPITSSLLKKDRTTTTTTEKELSPLTAARASEILFAAGMRPHKKTSEIWEHYKCLNEKQNVECIYCWKVLKRNDSSTKSMWGHMNAYHQDILRDGTTRKKVKRPANGLDFDETPTQPYVKRVRGGAGSSSSLPSMVKMDQKPMLDSMAFLQQLQQSGSLTEADFSSFANGSSLNFLDSLPKSSEVININSGFVKKEEMEEDTENHVEAASSSSSDERIKSETPDTYGSPNTSTTDQNEQLAAFVSSLSNSNPMMFAMLNAAGNSTSSAPAPPKSSTSQQRSSSPPSAHDTSNGSMSPSKVDKDPSSFSLSEGHCAAQLMSMALDLEMTMSYHKRRSEIELCFESNRTVDESQGAASRKVICLTDLGKEIKITERINGSVKDTELWVKTDFNQFHWAIRGKCQKSADASRVPPLVVKPRSSRRSPQPVRRRPPGPRDVSSPTHSFLMRWSFLCTL | not soluble
5 | MTSMATPHVAGIAALLLQAHPSWTPDKVKTALIETADIVKPDEIADIAYGAGRVNAYKAINYDNYAKLVFTGYVANKGSQTHQFVISGASFVTATLYWDNANSDLDLYLYDPNGNQVDYSYTAYYGFEKVGYYNPTDGTWTIKVVSYSGSANYQVDVVSDGSLSQPGSSPSPQPEPTVDAKTFQGLEHHHHHH | soluble
6 | MTSPNNDILAAQLSQLGTLRAALAQAVVGQDAVVEQLLIGLLAGGHCLLEGAPGLGKTLLVRSLGQALDLQFRRVQFTPDLMPSDILGTELLEEDHGTGHRHFRFQQGPIFTNLLLADELNRTPPKTQAALLEAMSERTVSYAGTTYALPAPFFVLATQNPIEQAGTYPLPEAQLDRFLLHVRVDYPSEQEERDILTQTTGSASAQVPKVMDAASVQALQQHVRQVHVGAELLTWINRLVRASRPGPQASDEVRQWIKWGAGPRAGQSLVLASKARALLHGRFAATREDVVALAAPVMRHRLLLSFAAEAEQRTADDVVAALLRAVPFPALEHHHHHH | soluble
7 | MTSVLDPDRALEDEAKDKFGFVGIAKQLAPPIIEAAKGEGMVIGLEGRWGSGKTSLLNFLRAELQASKKSGIHTITIAPWLNGDTSSLVLSLLEPMAAVLKQKEDELAESYGEGQSATKERVAEVGRLLRAYGPKTARRIASLANVAGYVLPGAQAIGGALAASASAADEIFDVGPTPSELKQELAVKIQELNVGFIVILDDLDRLEPEQAVEVVRLVRSVADFPKVVYLMCYDREVLSEALKTGLKVSDGDLFLQKIVQLTFNIPLPEPFDLRTQFRNEAKAIYFEATGVDLDGAILHDLTYAVDREGMGLSTPREVKLALNSIRFVFSQVKDDVYFPDLCRLHLIKTTNYKLYKWLEIYLSVRSVLVTGDATVSEDEKTKMGEELKMLLPASGPGSVHSIWSLARFIPGVVDTEKVSERVFNAINSSAISEAVRLKRLGSPLHYRFYFALTGPKTVMPDEDFNAILELARNDIDQLESRLAAETMKRRDSGRTWFEHVLDRLDDDCISSLDESQLSGILHALSGMMDIAMKEDGEVRSFALSLDGIANIVAKRCLVRLRELNPEKQANTVRSMAQDGKAINWLVGKFFRSQLFNHGKVGERAERPEQWEISEDLLDDIIEILRKRLSEQDIKNLIPNLPNVSAYLYGWMNLTDDDQAKNWVQEYSESDEGFLDILNHLRGWAMSDKVYYPLSEKTVSSFLDWNEVKTRLDGMQSGEFSDKLEHHHHHH | soluble
8 | MTTALHITLITETFPPEINGVANTLGRLCEGLRARGHQVELVRPRQGCDQSRASDEALLLCRGWPLPGYPGLQWGQSSMHKLLRRWKRQRPDVLYIATEGPLGLSALRAAKRLGISVVSGFHTNFQQYSSQYGLGLLTRLLTHYLRWFHNRSQLTLVPSASQHLELERRHFERLALLSRGVDSQLFHPAKRLDTLRADWGLGTDDLAVIHVGRLAQEKNLGLLKRCFERLQATYPQRRMKLIVVGDGPQRGALEKSLPEALFCGSQRGEALAAHYACGDLFLFPSLTETFGNVVLEALASGLAVVAYDQAGAAQHIRHGYNGVLAMPGDESAFCDAASWLLEEPETLRRVRLNARQHASRQGWAAVIEQFEDRLRSACEHGPAEDYEGLIEATVKPRSAVETLGTARGLPPSPPGAGSLEHHHHHH | soluble
9 | MTTALKIDFISDVSCPWCVIGLRALDQALEALGDEVQAQIHFQPFELNPNMPAEGQDIKEHIAEKYGSTPEQIEAIHETIRERGAELGFTFGKGERRIYNTFDAHRLLHWAEQEGKQPALKQALFVAYFSELKDPSSHQTLADVAQKVGLDRLRAQAILDSDEFASEVREAEQLWTSRGITSVPTMVFNDQYAVSGGQPVEVFVSAIRQMLSESK | not soluble
10 | MTTCLLDIDQQQSVLGAGYHEPRAYSPYGGMRVVPVSALAFCGQHLDPLTGSYPLGNGHRFYRPSLRRFISPDVLSPFGKGGLNAYAYCQGDPVNFADPSGRFPAIIAPVRNLVTGVINLGISAVKMYRNYRTGRDFALNSGYPASRSGVFTYGTSEHAVARWSVADKVVSAAGGISASLSIGTATARLITPESEVLAWVDFGVASFATVLSAYELYGLATSSAERRYPIQPVAYEIRTGVQPLEHHHHHH | soluble
11 | MTTGNLQVAIYGFTARSRAFEPAGICYETRLIRDKLTLGHCTLPIYKNSPVAKPVTEQQRKKSSEEPAELRKDLFDADNEKYEKYLMKLDPNDCKNQDHYKVLGLSKLRWQATSDEIRFCYRQKVLKHHPDKKKHRGIVMEKEEYFTCITKAYEQVGMSDVKRQAFDSVDHKFNDIIPNEKSINHNNFYNELAPVFQLNSRWSNIKPVPELGKSDATREDVENFYDFWFNFQSWREFSYLDEEDKERGEDRYERREMEKQNKAERERRRKEEAKRIRKLVDIAYAKDPRIIKFKKEQQAKKDKAKEDKQRAIREKQEAIDREKREKEEAEAKQKEEADRKAKEEREREKKERDIAKKAMSQQRKRLKKLADEAGHWTENPRDKLTEMERIERICIGFTVDQLRELCEKVESLSIASEIQTALTDAEILKKEAAGAKVTITEDKNKENEKQADKETWTSEEIQLLVKASNTFPPGTVERWVQIADYINEHRKDSTGLPPKTEKQVIKQCKAVQTMNVKLPSTTQNQLGTALPDEDVWSATEQKTLEDAIKKHKSSDPERWEKISTEVGTKSKKACIRRFKYLVQMVKNKK | not soluble
12 | MTTHQVKKSEAKRQHILDSGFHLVLRKGFVGVGLQEILKTSGVPKGSFYHYFESKEAFGCELLKHYISDYQIRLNQLWTTETSARDKLMNYLQCWVKDPATEQSWAESCLIVKMAAEVADLSEDMRLIMNDGVKRLIARMADLIRIGQQEGSIQTSVVPDVLAQVIYQMYLGAALLSKLYKHKAPLFQALESTKMMLDGCNHVQQDKNQ | soluble
13 | MTTIEIDAPAGPIDALLGLPPGQGPWPGVVVVHDAVGYVPDNKLISERIARAGYVVLTPNMYARGGRARCITRVFRELLTKRGRALDDILAARDHLLAMPECSGRVGIVGFCMGGQFALVLSPRGFGATAPFYGTPLPRHLSETLNGACPIVASFGTRDPLGIGAANRLRKVTAAKNIPADIKSYPGAGHSFANKLPGQPLVRIAGFGYNEAATEDAWRRVFEFFGQHLRAGSPGEP | soluble
14 | MTTKLQKRVNDLDEDIPRPPFSSHSDKTEDKEGVSEACPVCEKTVQNPCVLETGYVACYPCAISYLVNNEGHCPVTNKKLLGCTYNKHTNKWEVVTGIRKLLI | not soluble
15 | MTTLRTLMAVSLVLNLAACGFKLRGQVSELPFERVYITAPAGLTIGSDLERVISTHTRAKVVNKAEKSEAIIQIVHAIREKRILSLSESGRVREFELVYRVAARLLDAHNAELASLQEIRLTRILPFLDAQELAKAAEEEMLYKDMQKDAVQQILRQVSAVTSAGLEHHHHHH | not soluble
16 | MTTLTQVRPASVFVVSGGAKGITAQCVIELAQHQPCRFILLGRSEVIENEPDFARDCVEESVLKKAIMQHLLAQGEKPTPMSVQKVYHKIVSSREIKATLEAIAATGSQVEYIDVDVTNVAELRQKLADVGKITGIIHGAGNLADKLIEKKTDQDFEKVYTAKVQGLENLLSCVDANQLEHLVLFSSVAGFYGNMGQSDYAIANEILNKSAHLIKQNYPQCHVVAINWGGWDSGMVTPELKKAFAERGIDIIPVDVGTKMLVNELHPSHHDSTQVVIGSPIIPAPGNIDPQLRSYRIRRRMTVEANPFLLDHVIAGTPVLPATCGMSWMINACEECYPGYRYFRCQDFKILKGITFNDKVASEHILEIQEVAKHGSESIEFKTKVLSKTPEGKIHYHFSAHITIVRELPAAPVYESLDMTEDHTIGAIGKDFYQKGGLSLFHGISFQQITRVLNINSQKITVECCWAEIPLETQGQFPVKWHNPYATDLSTQPLWLWLSHVHQEVCLPGQITKSEQFRAIPRNKPFYVSCEIEHKTPSGVTADIILHDREGKIYFRIYQAKAIIAPMNLHLEHHHHHH | soluble
17 | MTTQVKPIRSFLFVPGNKESMLDKAALAKADALILDLEDSVPPAEKLAARELVARKIPALIAQGQRIWVRINRSAHIYDLDDILAVAQPGVEGVVISKPWGPEDVYMASSMIAEAETRANLPLGSIGLIPLLETARSMQLCYEIAQMPRVVGIVGATAKNADMGRALKFVWTPEGRETEYLKSRVVMAARAAGKQAIGGIWQQIKDLEGLARSSAFDRQLGMSGELALHPMQVETINRTYTPTAEDVAYYQGMIDALDAAQAQGRASVMYDGEHIDIAHVKTAHEVIALARAFDAAAALEHHHHHH | soluble
18 | MTTQVVNVIGAGLAGSEAAYQIAKRGVQVRLYEMRPVRQTPAHHTDKFAELVCSNSLRANTLTNAVGVIKEEMRLMDSVIIRAADECSVPAGGALAVDRHEFAAKVTEYVKNHPNVTVMNEEITEIPEGPTIIATGPLTSPDLSAQLKELTGEDYFYFYDAAAPIVEKDSIDMNKVYLKSRYDKGEAAYLNCPMTEEEFDRFYEALIAAETVPLKEFEKEIFFEGCMPVEVMASRGRQTLVFGPMKPVGLEDPKTGKTPYAVVQLRQDDAAGTLYNIVGFQTHLKWGPQKEVLQLIPGLENAEIVRYGVMHRNTFINSPNLLRPTYQYKQRDDLFFAGQMTGVEGYVESAASGLLAGINAARLVKGEEPVVLPPVTAMGSMANYITATNAKNFQPMNANFGLFAPLEKKIKKKAERNEAYATRALETIRNFVNILEHHHHHH | soluble
